From the supplement of paper PMC9112550, “Optimization of the antimicrobial peptide Bac7 by deep mutational scanning” (BMC Biology, 2022)

Each sequence was assayed on Escherichia coli TOP10 (assay: shrunken log2 fold change of peptide-encoding DNA abundance (4.5 h post-induction vs induction); higher = less antimicrobial activity (less host growth inhibition)). Details: time post-induction: 4.5 h; library: site-saturation at positions 5, 18, 19, 20.
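Note: peptides expressed intracellularly from a pBAD plasmid library in pooled LB shake-flask culture, induced with 0.3% L-arabinose, DNA abundance read by NGS, three biological replicates, DESeq2 with apeglm shrinkage.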

Sequence	shrunken log2 fold change
RRIRLRPPRLPRPRPRPFYKPRP	-0.349
RRIRYRPPRLPRPRPRPMPRPRP	0.0558
RRIRQRPPRLPRPRPRPSIPPRP	-0.751
RRIRWRPPRLPRPRPRPHRDPRP	-0.215
RRIRARPPRLPRPRPRPEAAPRP	1.78
RRIRQRPPRLPRPRPRPNTMPRP	0.12
RRIRIRPPRLPRPRPRPFSNPRP	-0.28
RRIRIRPPRLPRPRPRPVCMPRP	-0.564
RRIRNRPPRLPRPRPRPHMEPRP	-0.145
RRIRERPPRLPRPRPRPWKNPRP	-0.0553
RRIRGRPPRLPRPRPRPPFPPRP	1.17
RRIRRRPPRLPRPRPRPSVEPRP	0.0256
RRIRQRPPRLPRPRPRPKSQPRP	0.32
RRIRARPPRLPRPRPRPETGPRP	0.772
RRIRSRPPRLPRPRPRPWACPRP	0.0189
RRIRWRPPRLPRPRPRPYYNPRP	-1.01
RRIRPRPPRLPRPRPRPQHVPRP	0.00743
RRIRARPPRLPRPRPRPCYWPRP	-0.000727
RRIRARPPRLPRPRPRPVQYPRP	0.0979
RRIRGRPPRLPRPRPRPAQDPRP	0.836
RRIRDRPPRLPRPRPRPLVYPRP	-0.259
RRIRKRPPRLPRPRPRPQGWPRP	0.116
RRIRIRPPRLPRPRPRPLISPRP	-0.127
RRIRHRPPRLPRPRPRPTYKPRP	-0.333
RRIRRRPPRLPRPRPRPQIKPRP	-0.155

Sequence	shrunken log2 fold change
RRIRFRPPRLPRPRPRPVDRPRP	0.123
RRIRERPPRLPRPRPRPDRAPRP	0.00194
RRIRGRPPRLPRPRPRPGWQPRP	0.0826
RRIRFRPPRLPRPRPRPAGQPRP	0.171
RRIRCRPPRLPRPRPRPRQYPRP	-0.15
RRIRLRPPRLPRPRPRPRASPRP	0.516
RRIRYRPPRLPRPRPRPMFGPRP	-0.143
RRIRTRPPRLPRPRPRPWSDPRP	-0.0131
RRIRHRPPRLPRPRPRPPDQPRP	0.594
RRIRSRPPRLPRPRPRPPTNPRP	0.298
RRIRRRPPRLPRPRPRPMTPPRP	0.749
RRIRERPPRLPRPRPRPCRMPRP	-0.363
RRIRSRPPRLPRPRPRPIEHPRP	-0.0344
RRIRNRPPRLPRPRPRPGKAPRP	-0.181
RRIRVRPPRLPRPRPRPPTFPRP	0.0282
RRIRERPPRLPRPRPRPHGWPRP	0.136
RRIRFRPPRLPRPRPRPRIHPRP	-0.262
RRIRRRPPRLPRPRPRPDPLPRP	0.119
RRIRYRPPRLPRPRPRPMENPRP	-0.207
RRIRWRPPRLPRPRPRPKNLPRP	0.0793
RRIRVRPPRLPRPRPRPQNWPRP	0.0353
RRIRARPPRLPRPRPRPEVCPRP	1.25
RRIRERPPRLPRPRPRPSYGPRP	-0.708
RRIRQRPPRLPRPRPRPLAGPRP	0.166
RRIRKRPPRLPRPRPRPDDRPRP	0.0147

Sequence	shrunken log2 fold change
RRIRRRPPRLPRPRPRPTDPPRP	0.246
RRIRKRPPRLPRPRPRPDRPPRP	0.0953
RRIRTRPPRLPRPRPRPPQEPRP	0.0383
RRIRTRPPRLPRPRPRPFRYPRP	-0.0915
RRIRRRPPRLPRPRPRPMDRPRP	0.118
RRIRMRPPRLPRPRPRPKYSPRP	-0.326
RRIRPRPPRLPRPRPRPLAIPRP	0.00474
RRIRIRPPRLPRPRPRPNELPRP	-0.056
RRIRNRPPRLPRPRPRPICVPRP	0.111
RRIRWRPPRLPRPRPRPKHQPRP	0.195
RRIRKRPPRLPRPRPRPTMTPRP	0.608
RRIRPRPPRLPRPRPRPRLMPRP	0.337
RRIRTRPPRLPRPRPRPFREPRP	-0.0376
RRIRYRPPRLPRPRPRPWTPPRP	-0.0576
RRIRLRPPRLPRPRPRPIEGPRP	0.0046
RRIRDRPPRLPRPRPRPIKHPRP	-0.373
RRIRYRPPRLPRPRPRPIYHPRP	-0.85
RRIRWRPPRLPRPRPRPHCPPRP	-0.0401
RRIRVRPPRLPRPRPRPDHGPRP	-0.0218
RRIRKRPPRLPRPRPRPLYKPRP	-0.112
RRIRMRPPRLPRPRPRPACGPRP	0.811
RRIRARPPRLPRPRPRPYFGPRP	-0.327
RRIRDRPPRLPRPRPRPSEKPRP	-0.0166
RRIRIRPPRLPRPRPRPFAIPRP	-0.886
RRIRLRPPRLPRPRPRPDQYPRP	-0.014
